Positions count from the first letter of the chain named. The star is where a group is joined. Biotin = O=C1N[C@H]2[C@H](CS[C@H]2CCCCC(=O)*)N1; Ahx = NCCCCCC(=O)O
T1: biotin-NPY20-36 (SMILES …)
T1 construct: Captured on neutravidin or streptavidin plates
T1 peptide: {Biotin-Ahx}-YYSALRHYINLITRQRY-NH2

T2: biotin-hPP (human, N-terminal Biotin-Ahx-; C-terminal amide (-NH2))
T2 peptide: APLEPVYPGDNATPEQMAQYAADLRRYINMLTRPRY

B1: scFv-3 (human) (scFv)
scFv: EVQLLESGGGLVQPGGSLRLSCAASGFRFSDEDMGWVRQAPGKGLEWVSSIYGPSGSTYYADSVKGRFTISRDNSKNTLYLQMNSLRAEDTAVYYCAKDDVGTGTFDYWGQGTLVTVSSGGGGSGGGGSGGGGSTDIQMTQSPSSLSASVGDRVTITCRASQYIYYALNWYQQKPGKAPKLLIYDYSALQSGVPSRFSGSGSGTDFTLTISSLQPEDFATYYCQQSYYHPATFGQGTKVEIKR
notes: Human scFv from the Garvan-2 phage library; Whole entry used as named
B2: scFv-6 (human) (scFv)
scFv: EVQLLESGGGLVQPGGSLRLSCAASGFRFSAEDMGWVRQAPGKGLEWVSSIASAGASTYYADSVKGRFTISRDNSKNTLYLQMNSLRAEDTAVYYCAKHMYSYAIFDYWGQGTLVTVSSGGGGSGGGGSGGGGSTDIQMTQSPSSLSASVGDRVTITCRASQDIADALNWYQQKPGKAPKLLIYAASSLQSGVPSKFSGSGSGTDFTLTISSLQPEDFATYYCQQGYVHPPTFGQGTKVEIKR
notes: as for B1
B3: scFv-7 (human) (scFv)
scFv: EVQLLESGGGLVQPGGSLRLSCAASGFRFDYEDMGWVRQAPGKGLEWVSAIASDGDSTYYADSVKGRFTISRDNSKNTLYLQMNSLRAEDTAVYYCAKIYYDGAYRVFDYWGQGTLVTVSSGGGGSGGGGSGGGGSTDIQMTQSPSSLSASVGDRVTITCRASQSISSYLNWYQQKPGKAPKLLIYSASYLQSGVPSRFSGSGSGTDFTLTISSLQPEDFATYYCQQYSMLPTTFGQGTKVEIKR
notes: as for B1
B4: h5E12 IGHV1-46/DPK9 scFv (humanized) (scFv)
scFv: QVQLVQSGAEVKKPGASVKVSCKASGYTFTNYWMHWVRQAPGQGLEWMGNIDPSNGGTNYNEKFKSRVTMTRDTSTSTVYMELSSLRSEDTAVYYCASFAYWGQGTLVTVSSGGGGSGGGGSGGGGSTDIQMTQSPSSLSASVGDRVTITCRASGNIHNYLAWYQQKPGKAPKLLIYNAKTLADGVPSRFSGSGSGTDFTLTISSLQPEDFATYYCQHFWSPPFTFGQGTKVEIKR
notes: Humanized 5E12 scFv
B5: h5E12 IGHV1-69/DPK9 scFv (humanized) (scFv)
scFv: B4 scFv with A16S, M70I, R72A, T74E, V79A
notes: Humanized 5E12 scFv
B6: mouse 5E12-B7 scFv PSE2 (scFv, V domains shown, not shown: small tags and cut ends)
VH: QVQLQHPGTEVVKPGASVKLSCKASGYTFTNYWMHWVKQRPGQGLEWIGNIDPSNGGTNYNEKFKSKATLTVDKSSSTAYMQLSSLTSEDSAVYYCASFAYWGQGTLVTVSS
VL: DIQMTQSPASLSASVGETVTITCRASGNIHNYLAWYQQKQGKSPQLLVYNAKTLADGVPSRFSGSGSGTQYSLKISSLRPEDFGSYYCQHFWSPPFTFGSGTKLEIK
notes: also called 5E12 (mouse); mouse 5E12 PSE2

Assays:
[1] = target: T1, biotin-NPY20-36; test: soluble scFv ELISA, biotin-NPY20-36 on streptavidin
Procedure: (§1) In order to analyze antigen binding, ELISA plates were coated with 1 ug/mL biotin-NPY₂₀₋₃₆ on 10 ug/mL streptavidin […] streptavidin only.
(§2) Plates were then blocked with 5% skim milk/PB ST and incubated with supernatant from the IPTG-induced cultures. Binding of soluble scFv to wells was detected with peroxidase conjugated anti-cMyc.

[2] = target: biotin-hPYY (human, N-terminal Biotin-Ahx-; C-terminal amide (-NH2)); test: BLI (ForteBio Blitz), biotinylated peptide on streptavidin sensor, scFv in solution
Procedure: (§3) Affinity of the purified scFv for biotin-NPY, biotin-hPYY and biotin-hPP was determined using a Blitz system (ForteBio). Streptavidin Biosensors were blocked for 1 hr with 1% BSA in PBS. Biosensors were then coupled for 120 seconds with 1 μM solutions of biotinylated peptide followed by a 30 second baseline measurement. The sensors were then transferred to varying dilutions of purified scFv and association was measured for 300 seconds. The sensors were then transferred to PBS and dissociation was measured for 900 seconds. Global fits were determined for association and dissociation curves at two concentrations of each scFv against each of the peptides. All curves were referenced with peptide-only and scFv-only runs.

[3] = target: T2, biotin-hPP; test: as above
Procedure: as §3

[4] = target: biotin-NPY (N-terminal Biotin-Ahx-; C-terminal amide (-NH2)); test: as above
Procedure: as §3

[5] = target: T1, biotin-NPY20-36; test: phage ELISA, scFv on phage, anti-M13 detection
Procedure: Overnight cultures were grown from clones transformed with the humanized 5E12-B7 scFv genes pHEN1 vector. Phages were then produced through overnight incubation after rescue with KM13 helper phage. In order to analyze antigen binding, ELISA plates were coated with 500 ng/mL biotin-NPY₂₀₋₃₆ on 10 ug/mL neutravidin; 10 ug/mL neutravidin only; 10 ug/mL Protein A or 10 ug/mL Protein L
ELISA plates were blocked with 5% skim milk/PB ST then incubated with phage culture supernatant which had also been blocked with 5% skim milk/1% Tween (final concentration). Binding of scFv-phage to wells was detected with Peroxidase conjugated anti-M13 secondary antibody.

[6] = target: T1, biotin-NPY20-36; test: soluble scFv ELISA, biotin-NPY20-36 on streptavidin, anti-cMyc detection
Procedure: as §1, §2

Chain of biotin-hPYY (human, N-terminal Biotin-Ahx-; C-terminal amide (-NH2)) (peptide, as listed by the source): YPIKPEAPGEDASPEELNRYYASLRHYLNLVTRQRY

Binder | binding result [1] | Kd [2] | max signal (nm) [3] | Kd [4] | binding result [5] | binding result [6]
B1 | binds | 1910 nM | < 0.2 nm |  |  | 
B2 | binds | 3240 nM | < 0.2 nm | 177 nM |  | 
B3 | binds |  | < 0.2 nm | 9250 nM |  | 
B4 |  | 1040 nM | < 0.2 nm | 905 nM | binds | 
B5 |  | 140 nM | < 0.2 nm | 142 nM | binds | 
B6 |  | 32.9 nM |  | 22.1 nM |  | binds

From patent publication US20150307599A1 (GARVAN INSTITUTE OF MEDICAL RESEARCH, published 2015)
